# According to IntAct's records for PubMed 30126976:
# B1: Vang-like protein 2 (Homo sapiens), Q9ULK5 (parent)
# chain: MDTESQYSGYSYKSGHSRSSRKHRDRRDRHRSKSRDGGRGDKSVTIQAPGEPLLDNESTRGDERDDNWGETTTVVTGTSEHSISHDDLTRIAKDMEDSVPLDCSRHLGVAAGATLALLSFLTPLAFLLLPPLLWREELEPCGTACEGLFISVAFKLLILLLGSWALFFRRPKASLPRVFVLRALLMVLVFLLVVSYWLFYGVRILDARERSYQGVVQFAVSLVDALLFVHYLAVVLLELRQLQPQFTLKVVRSTDGASRFYNVGHLSIQRVAVWILEKYYHDFPVYNPALLNLPKSVLAKKVSGFKVYSLGEENSTNNSTGQSRAVIAAAARRRDNSHNEYYYEEAEHERRVRKRRARLVVAVEEAFTHIKRLQEEEQKNPREVMDPREAAQAIFASMARAMQKYLRTTKQQPYHTMESILQHLEFCITHDMTPKAFLERYLAAGPTIQYHKERWLAKQWTLVSEEPVTNGLKDGIVFLLKRQDFSLVVSTKKVPFFKLSEEFVDPKSHKFVMRLQSETSV
# B2: Prostaglandin D2 receptor (Homo sapiens), Q13258 (parent)
# chain: MKSPFYRCQNTTSVEKGNSAVMGGVLFSTGLLGNLLALGLLARSGLGWCSRRPLRPLPSVFYMLVCGLTVTDLLGKCLLSPVVLAAYAQNRSLRVLAPALDNSLCQAFAFFMSFFGLSSTLQLLAMALECWLSLGHPFFYRRHITLRLGALVAPVVSAFSLAFCALPFMGFGKFVQYCPGTWCFIQMVHEEGSLSVLGYSVLYSSLMALLVLATVLCNLGAMRNLYAMHRRLQRHPRSCTRDCAEPRADGREASPQPLEELDHLLLLALMTVLFTMCSLPVIYRAYYGAFKDVKEKNRTSEEAEDLRALRFLSVISIVDPWIFIIFRSPVFRIFFHKIFIRPLRYRSRCSNSTNMESSL
# B3: Monocarboxylate transporter 4 (Homo sapiens), O15427 (parent)
# chain: MGGAVVDEGPTGVKAPDGGWGWAVLFGCFVITGFSYAFPKAVSVFFKELIQEFGIGYSDTAWISSILLAMLYGTGPLCSVCVNRFGCRPVMLVGGLFASLGMVAASFCRSIIQVYLTTGVITGLGLALNFQPSLIMLNRYFSKRRPMANGLAAAGSPVFLCALSPLGQLLQDRYGWRGGFLILGGLLLNCCVCAALMRPLVVTAQPGSGPPRPSRRLLDLSVFRDRGFVLYAVAASVMVLGLFVPPVFVVSYAKDLGVPDTKAAFLLTILGFIDIFARPAAGFVAGLGKVRPYSVYLFSFSMFFNGLADLAGSTAGDYGGLVVFCIFFGISYGMVGALQFEVLMAIVGTHKFSSAIGLVLLMEAVAVLVGPPSGGKLLDATHVYMYVFILAGAEVLTSSLILLLGNFFCIRKKPKEPQPEVAAAEEEKLHKPPADSGVDLREVEHFLKAEPEKNGEVVHTPETSV
# B4: Inward rectifier potassium channel 4 (Homo sapiens), P48050 (parent)
# chain: MHGHSRNGQAHVPRRKRRNRFVKKNGQCNVYFANLSNKSQRYMADIFTTCVDTRWRYMLMIFSAAFLVSWLFFGLLFWCIAFFHGDLEASPGVPAAGGPAAGGGGAAPVAPKPCIMHVNGFLGAFLFSVETQTTIGYGFRCVTEECPLAVIAVVVQSIVGCVIDSFMIGTIMAKMARPKKRAQTLLFSHHAVISVRDGKLCLMWRVGNLRKSHIVEAHVRAQLIKPYMTQEGEYLPLDQRDLNVGYDIGLDRIFLVSPIIIVHEIDEDSPLYGMGKEELESEDFEIVVILEGMVEATAMTTQARSSYLASEILWGHRFEPVVFEEKSHYKVDYSRFHKTYEVAGTPCCSARELQESKITVLPAPPPPPSAFCYENELALMSQEEEEMEEEAAAAAAVAAGLGLEAGSKEEAGIIRMLEFGSHLDLERMQASLPLDNISYRRESAI
# B5: Neuroepithelial cell-transforming gene 1 protein (Homo sapiens), Q7Z628 (parent)
# chain: MEPELAAQKQPRPRRRSRRASGLSTEGATGPSADTSGSELDGRCSLRRGSSFTFLTPGPNWDFTLKRKRREKDDDVVSLSSLDLKEPSNKRVRPLARVTSLANLISPVRNGAVRRFGQTIQSFTLRGDHRSPASAQKFSSRSTVPTPAKRRSSALWSEMLDITMKESLTTREIRRQEAIYEMSRGEQDLIEDLKLARKAYHDPMLKLSIMSEEELTHIFGDLDSYIPLHEDLLTRIGEATKPDGTVEQIGHILVSWLPRLNAYRGYCSNQLAAKALLDQKKQDPRVQDFLQRCLESPFSRKLDLWSFLDIPRSRLVKYPLLLKEILKHTPKEHPDVQLLEDAILIIQGVLSDINLKKGESECQYYIDKLEYLDEKQRDPRIEASKVLLCHGELRSKSGHKLYIFLFQDILVLTRPVTRNERHSYQVYRQPIPVQELVLEDLQDGDVRMGGSFRGAFSNSEKAKNIFRIRFHDPSPAQSHTLQANDVFHKQQWFNCIRAAIAPFQSAGSPPELQGLPELHEECEGNHPSARKLTAQRRASTVSSVTQVEVDENAYRCGSGMQMAEDSKSLKTHQTQPGIRRARDKALSGGKRKETLV
# B6: Plakophilin-4 (Homo sapiens), Q99569 (parent)
# chain: MPAPEQASLVEEGQPQTRQEAASTGPGMEPETTATTILASVKEQELQFQRLTRELEVERQIVASQLERCRLGAESPSIASTSSTEKSFPWRSTDVPNTGVSKPRVSDAVQPNNYLIRTEPEQGTLYSPEQTSLHESEGSLGNSRSSTQMNSYSDSGYQEAGSFHNSQNVSKADNRQQHSFIGSTNNHVVRNSRAEGQTLVQPSVANRAMRRVSSVPSRAQSPSYVISTGVSPSRGSLRTSLGSGFGSPSVTDPRPLNPSAYSSTTLPAARAASPYSQRPASPTAIRRIGSVTSRQTSNPNGPTPQYQTTARVGSPLTLTDAQTRVASPSQGQVGSSSPKRSGMTAVPQHLGPSLQRTVHDMEQFGQQQYDIYERMVPPRPDSLTGLRSSYASQHSQLGQDLRSAVSPDLHITPIYEGRTYYSPVYRSPNHGTVELQGSQTALYRTGSVGIGNLQRTSSQRSTLTYQRNNYALNTTATYAEPYRPIQYRVQECNYNRLQHAVPADDGTTRSPSIDSIQKDPREFAWRDPELPEVIHMLQHQFPSVQANAAAYLQHLCFGDNKVKMEVCRLGGIKHLVDLLDHRVLEVQKNACGALRNLVFGKSTDENKIAMKNVGGIPALLRLLRKSIDAEVRELVTGVLWNLSSCDAVKMTIIRDALSTLTNTVIVPHSGWNNSSFDDDHKIKFQTSLVLRNTTGCLRNLSSAGEEARKQMRSCEGLVDSLLYVIHTCVNTSDYDSKTVENCVCTLRNLSYRLELEVPQARLLGLNELDDLLGKESPSKDSEPSCWGKKKKKKKRTPQEDQWDGVGPIPGLSKSPKGVEMLWHPSVVKPYLTLLAESSNPATLEGSAGSLQNLSAGNWKFAAYIRAAVRKEKGLPILVELLRMDNDRVVSSVATALRNMALDVRNKELIGKYAMRDLVNRLPGGNGPSVLSDETMAAICCALHEVTSKNMENAKALADSGGIEKLVNITKGRGDRSSLKVVKAAAQVLNTLWQYRDLRSIYKKDGWNQNHFITPVSTLERDRFKSHPSLSTTNQQMSPIIQSVGSTSSSPALLGIRDPRSEYDRTQPPMQYYNSQGDATHKGLYPGSSKPSPIYISSYSSPAREQNRRLQHQQLYYSQDDSNRKNFDAYRLYLQSPHSYEDPYFDDRVHFPASTDYSTQYGLKSTTNYVDFYSTKRPSYRAEQYPGSPDSWV
# B7: Vang-like protein 1 (Homo sapiens), Q8TAA9 (parent)
# chain: MDTESTYSGYSYYSSHSKKSHRQGERTRERHKSPRNKDGRGSEKSVTIQPPTGEPLLGNDSTRTEEVQDDNWGETTTAITGTSEHSISQEDIARISKDMEDSVGLDCKRYLGLTVASFLGLLVFLTPIAFILLPPILWRDELEPCGTICEGLFISMAFKLLILLIGTWALFFRKRRADMPRVFVFRALLLVLIFLFVVSYWLFYGVRILDSRDRNYQGIVQYAVSLVDALLFIHYLAIVLLELRQLQPMFTLQVVRSTDGESRFYSLGHLSIQRAALVVLENYYKDFTIYNPNLLTASKFRAAKHMAGLKVYNVDGPSNNATGQSRAMIAAAARRRDSSHNELYYEEAEHERRVKKRKARLVVAVEEAFIHIQRLQAEEQQKAPGEVMDPREAAQAIFPSMARALQKYLRITRQQNYHSMESILQHLAFCITNGMTPKAFLERYLSAGPTLQYDKDRWLSTQWRLVSDEAVTNGLRDGIVFVLKCLDFSLVVNVKKIPFIILSEEFIDPKSHKFVLRLQSETSV
# Variants of: B1
# Details: with dlg1_human DLG1, Q12959
row,Variant,effect of a mutation on the interaction
1,S517E;S520E,with no effect

# Variants of: B2
# Details: with scrib_human SCRIB
# Target sequence in this assay (Q14160 whole entry): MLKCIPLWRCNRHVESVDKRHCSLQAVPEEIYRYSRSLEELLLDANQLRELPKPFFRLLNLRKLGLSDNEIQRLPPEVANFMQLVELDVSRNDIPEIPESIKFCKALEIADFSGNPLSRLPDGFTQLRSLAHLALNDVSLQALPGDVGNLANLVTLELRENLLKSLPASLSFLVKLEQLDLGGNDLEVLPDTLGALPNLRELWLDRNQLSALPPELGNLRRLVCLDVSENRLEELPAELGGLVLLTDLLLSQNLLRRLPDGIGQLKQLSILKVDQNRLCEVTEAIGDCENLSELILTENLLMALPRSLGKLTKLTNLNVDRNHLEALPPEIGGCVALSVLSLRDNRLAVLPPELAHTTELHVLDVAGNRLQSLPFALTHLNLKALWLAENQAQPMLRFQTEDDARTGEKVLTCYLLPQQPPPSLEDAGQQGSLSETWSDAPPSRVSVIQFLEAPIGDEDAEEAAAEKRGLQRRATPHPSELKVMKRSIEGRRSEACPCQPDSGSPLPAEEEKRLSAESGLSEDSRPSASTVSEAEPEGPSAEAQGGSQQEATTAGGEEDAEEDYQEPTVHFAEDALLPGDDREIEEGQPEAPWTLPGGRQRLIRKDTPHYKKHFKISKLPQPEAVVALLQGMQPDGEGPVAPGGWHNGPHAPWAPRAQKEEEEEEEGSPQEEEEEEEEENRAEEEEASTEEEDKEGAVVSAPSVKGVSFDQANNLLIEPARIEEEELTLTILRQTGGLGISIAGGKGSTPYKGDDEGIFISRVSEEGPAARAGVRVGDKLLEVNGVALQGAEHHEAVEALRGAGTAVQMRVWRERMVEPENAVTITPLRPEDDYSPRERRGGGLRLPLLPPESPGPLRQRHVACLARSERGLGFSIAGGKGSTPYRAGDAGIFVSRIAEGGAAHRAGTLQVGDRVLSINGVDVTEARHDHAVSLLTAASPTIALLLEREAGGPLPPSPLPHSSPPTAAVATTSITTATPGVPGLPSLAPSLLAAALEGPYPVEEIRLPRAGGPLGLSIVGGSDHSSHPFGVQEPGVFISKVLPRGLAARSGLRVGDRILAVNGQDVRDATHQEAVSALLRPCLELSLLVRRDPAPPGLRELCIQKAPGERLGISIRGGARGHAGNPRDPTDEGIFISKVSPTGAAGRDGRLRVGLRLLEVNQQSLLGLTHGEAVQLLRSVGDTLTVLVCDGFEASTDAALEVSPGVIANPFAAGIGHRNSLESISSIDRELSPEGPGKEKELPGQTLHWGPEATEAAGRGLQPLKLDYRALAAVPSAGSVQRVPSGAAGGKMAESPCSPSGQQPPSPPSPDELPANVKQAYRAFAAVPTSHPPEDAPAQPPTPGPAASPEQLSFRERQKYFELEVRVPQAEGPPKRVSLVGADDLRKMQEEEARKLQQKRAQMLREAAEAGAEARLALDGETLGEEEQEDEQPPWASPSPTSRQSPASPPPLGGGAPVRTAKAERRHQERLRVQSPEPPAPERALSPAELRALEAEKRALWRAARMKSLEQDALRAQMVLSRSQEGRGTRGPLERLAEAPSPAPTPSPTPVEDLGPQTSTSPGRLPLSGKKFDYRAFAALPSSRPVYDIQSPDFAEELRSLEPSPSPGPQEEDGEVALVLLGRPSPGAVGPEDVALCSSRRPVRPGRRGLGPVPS
row,Variant,effect of a mutation on the interaction
1,S358E,causing an interaction

# Variants of: B3
# Details: with scrib_human SCRIB
# Target sequence in this assay (Q14160 whole entry): as above
row,Variant,effect of a mutation on the interaction
1,S464E,with no effect

# Variants of: B4
# Details: with scrib_human SCRIB
# Target sequence in this assay (Q14160 whole entry): as above
row,Variant,effect of a mutation on the interaction
1,S443E,disrupting interaction strength

# Variants of: B5
# Details: with dlg1_human DLG1, Q12959
# Target sequence in this assay (Q12959 whole entry, looked up): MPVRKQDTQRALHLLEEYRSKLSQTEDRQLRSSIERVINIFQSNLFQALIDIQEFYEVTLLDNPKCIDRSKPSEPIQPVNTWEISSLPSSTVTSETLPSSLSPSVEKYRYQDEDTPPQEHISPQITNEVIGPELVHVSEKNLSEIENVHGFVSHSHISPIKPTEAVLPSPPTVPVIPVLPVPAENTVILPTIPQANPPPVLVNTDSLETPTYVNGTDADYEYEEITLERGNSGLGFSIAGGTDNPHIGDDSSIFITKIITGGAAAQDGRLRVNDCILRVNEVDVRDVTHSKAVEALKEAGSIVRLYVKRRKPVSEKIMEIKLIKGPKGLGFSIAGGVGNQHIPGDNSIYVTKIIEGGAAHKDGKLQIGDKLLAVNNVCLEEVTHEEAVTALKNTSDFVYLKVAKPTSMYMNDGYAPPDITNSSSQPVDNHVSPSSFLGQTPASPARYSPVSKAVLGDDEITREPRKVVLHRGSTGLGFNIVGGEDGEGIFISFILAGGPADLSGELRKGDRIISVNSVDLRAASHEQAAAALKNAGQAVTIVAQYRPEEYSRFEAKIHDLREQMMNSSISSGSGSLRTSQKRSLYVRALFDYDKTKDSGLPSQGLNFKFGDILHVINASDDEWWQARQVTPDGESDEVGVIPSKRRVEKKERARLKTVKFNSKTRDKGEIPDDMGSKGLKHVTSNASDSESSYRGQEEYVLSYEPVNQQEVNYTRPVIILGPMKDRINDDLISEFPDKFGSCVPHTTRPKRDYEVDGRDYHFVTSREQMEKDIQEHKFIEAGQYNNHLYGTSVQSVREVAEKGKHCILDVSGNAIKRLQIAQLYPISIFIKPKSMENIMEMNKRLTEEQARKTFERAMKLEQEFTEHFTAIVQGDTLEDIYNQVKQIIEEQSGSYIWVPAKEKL
row,Variant,effect of a mutation on the interaction
1,T594E,disrupting interaction strength

# Variants of: B6
# Details: with dlg1_human DLG1, Q12959
# Target sequence in this assay (Q12959 whole entry, looked up): as above
row,Variant,effect of a mutation on the interaction
1,S1190E,disrupting interaction strength

# Variants of: B7
# Details: with dlg1_human DLG1, Q12959
# Target sequence in this assay (Q12959 whole entry, looked up): as above
row,Variant,effect of a mutation on the interaction
1,S523E,increasing interaction strength
